From US20240360238A1 (MAGENTA THERAPEUTICS, published 2024)
Numbering of substitutions follows the chain as printed.

B1: HC-22/LC-22 (Ab22) (antibody, IgG1, V domains shown)
VH: QVQLKESGPGLVQPSQTLSLTCTVSGFSLTSYLVHWVRQPPGKTLEWVGLMWNDGDTSYNSALKSRLSISRDTSKSQVFLKMHSLQAEDTATYYCARESNLGFTYWGHGTLVTVSS
VL: DIQMTQSPASLSASLEEIVTITCKASQGIDDDLSWYQQKPGKSPQLLIYDVTRLADGVPSRFSGSRSGTQYSLKISRPQVADSGIYYCLQSYSTPYTFGAGTKLELK
notes: From rat immunization/hybridoma; purified IgG in BLI; also called 022
B2: HC-2/LC-2 (Ab2) (antibody, IgG1, V domains shown)
VH: QVQLVQSGAAVKKPGESLKISCKGSGYRFTTYWIGWVRQMPGKGLEWMGIIYPGDSDTRYSPSFQGQVTISAGKSISTAYLQWSSLKASDTAMYYCARHGRGYNGYEGAFDIWGQGTMVTVSS
VL: DIQLTQSPSSLSASVGDRVTITCRASQGIRTDLGWYQQKPGKAPKLLIYDASSLESGVPSRFSGSGSGTDFTLTISSLQPEDFATYYCQQFNSYPLTFGGGTKVEIK
notes: Purified IgG; also called 002
B3: HC-6/LC-6 (Ab6) (antibody, IgG1, V domains shown)
VH: B2 VH
VL: AIRMTQSPSSLSASVGDRVIIACRASQGIGGALAWYQQKPGNAPKVLVYDASTLESGVPSRFSGGGSGTDFTLTISSLQPEDFATYYCQQFNSYPLTFGGGTKLEIK
notes: Purified IgG; also called 006
B4: HC-11/LC-11 (Ab11) (antibody, IgG1, V domains shown)
VH: B2 VH
VL: AIQLTQSPSSLSASVGDRVTITCRASQSIGDYLTWYQQKPGKAPKVLIYGASSLQSGVPPRFSGSGSGTDFTLTVSSLQPEDFATYYCQQLNSYPLTFGGGTKLEIK
notes: Purified IgG; also called 011
B5: HC-10/LC-10 (Ab10) (antibody, IgG1, V domains shown)
VH: B2 VH
VL: NIQMTQSPSSLSTSVGDRVTITCRASQGIGTSLAWYQQKPGKPPKLLIYDASSLESGVPSRLSGSGSGTDFTLTISSLQPEDFATYYCQQSNSYPITFGQGTRLEIK
notes: Purified IgG; also called 010
B6: HC-9/LC-9 (Ab9) (antibody, IgG1, V domains shown)
VH: B2 VH
VL: B2 VL with D1A, Q3R, L4M, R24Q, T31N, S53N, S56T, L73F, F83I, V104L
notes: Purified IgG; also called 009
B7: HC-7/LC-7 (Ab7) (antibody, IgG1, V domains shown)
VH: B2 VH
VL: B2 VL with Q3A, L4M, S9P, S14F, R30I, T31S, D32S, G34A, S76R, V104L
notes: Purified IgG; also called 007
B8: HC-15/LC-15 (Ab15) (antibody, IgG1, V domains shown)
VH: B2 VH
VL: AIQLTQSPSSLSASVGDRVTITCRASQGIGSALAWYQQKPGIGPKLLIYDASTLESGVPARFSGSGSRTDFTLTITSLQPEDFATYYCQQFNGYPLTFGGGTKLEIK
notes: Purified IgG; also called 015
B9: HC-5/LC-5 (Ab5) (antibody, IgG1, V domains shown)
VH: B2 VH
VL: NIQMTQSPSSLSASVGDRVTITCRASQAISDYLAWFQQKPGKAPKLLIYDASNLETGVPSRFSGSGSGTDFTLTISSLQPEDFATYYCQQLNSYPLTFGGGTKVEIK
notes: Purified IgG; also called 005
B10: HC-16/LC-16 (Ab16) (antibody, IgG1, V domains shown)
VH: B2 VH
VL: B2 VL with D1A, R30T, T31S, D32A, G34A, Q38E, K45N, S67Y, F91L, E105D
notes: Purified IgG; also called 016
B11: HC-4/LC-4 (Ab4) (antibody, IgG1, V domains shown)
VH: B2 VH
VL: B2 VL with D1A, L4M, T31N, E105D
notes: Purified IgG; also called 004
B12: HC-3/LC-3 (Ab3) (antibody, IgG1, V domains shown)
VH: B2 VH
VL: B2 VL with D1A, Q3R, L4M, T31N, G34A, A43T
notes: Purified IgG; also called 003
B13: HC-13/LC-13 (Ab13) (antibody, IgG1, V domains shown)
VH: B2 VH
VL: B2 VL with Q3V, L4M, T31N, V104L
notes: Purified IgG; also called 013
B14: HC-14/LC-14 (Ab14) (antibody, IgG1, V domains shown)
VH: B2 VH
VL: B2 VL with R30S, T31S, D32F, G34A, S53T, E55Q, G66A, F91L, S93G
notes: Purified IgG; also called 014
B15: HC-8/LC-8 (Ab8) (antibody, IgG1, V domains shown)
VH: B2 VH
VL: DIQMTQSPSSLSASVGDRVTITCRASQGISSALAWYQQKAGKAPKVLISDASSLESGVPSRFSGSGSGTDFTLSISSLQPEDFATYYCQQFNGYPLTFGGGTKVDIK
notes: Purified IgG; also called 008
B16: HC-12/LC-12 (Ab12) (antibody, IgG1, V domains shown)
VH: B2 VH
VL: B2 VL with I29V, T31S, D32T, G34A, S53I, S93G, G100Q, K103R, V104L
notes: Purified IgG; also called 012
B17: HC-24/LC-24 (Ab24) (antibody, IgG1, V domains shown)
VH: EVQLVESGGGLVQSGRSLKLSCAASGFTVSDYYMAWVRQAPTKGLEWVATINYDGSTTYHRDSVKGRFTISRDNAKSTLYLQMDSLRSEDTATYYCARHGDYGYHYGAYYFDYWGQGVMVTVSS
VL: DIVLTQSPALAVSLGQRATISCRASQTVSLSGYNLIHWYQQRTGQQPKLLIYRASNLAPGIPARFSGSGSGTDFTLTISPVQSDDIATYYCQQSRESWTFGGGTNLEMK
notes: From rat immunization/hybridoma; purified IgG in BLI; also called 024
B18: HC-17/LC-17 (Ab17) (antibody, IgG1, V domains shown)
VH: QIQLVQSGPELRKPGESVKISCKASGYTFTDYAMYWVKQAPGKGLKWMGWINTYTGKPTYADDFKGRFVFSLEASANTANLQISNLKNEDTATYFCARARGLVDDYVMDAWGQGTSVTVSS
VL: SYELIQPPSASVTLGNTVSLTCVGDELSKRYAQWYQQKPDKTIVSVIYKDSERPSGISDRFSGSSSGTTATLTIHGTLAEDEADYYCLSTYSDDNLPVFGGGTKLTVL
notes: From rat immunization/hybridoma; purified IgG in BLI; also called 017
B19: HC-21/LC-21 (Ab21) (antibody, IgG1, V domains shown)
VH: QIQLVQSGPELKKPGESVKISCKASGYTFTDYAVYWVIQAPGKGLKWMGWINTYTGKPTYADDFKGRFVFSLETSASTANLQISNLKNEDTATYFCARGAGMTKDYVMDAWGRGVLVTVS
VL: B18 VL with G56D
notes: From rat immunization/hybridoma; purified IgG in BLI; also called 021
B20: HC-18/LC-18 (Ab18) (antibody, IgG1, V domains shown)
VH: EVQLQQYGAELGKPGTSVRLSCKVSGYNIRNTYIHWVNQRPGEGLEWIGRIDPTNGNTISAEKFKTKATLTADTSSHTAYLQFSQLKSDDTAIYFCALNYEGYADYWGQGVMVTGSS
VL: DIQMTQSPSFLSASVGDRVTINCKASQNINKYLNWYQQKVGEAPKRLIFKTNSLQTGIPSRFSGSGSGTDYTLTISSLQTEDVATYFCFQYNIGYTFGAGTKVELK
notes: From rat immunization/hybridoma; purified IgG in BLI; also called 018
B21: HC-20/LC-20 (Ab20) (antibody, IgG1, V domains shown)
VH: EVQLQQYGAELGKPGTSVRLSCKLSGYKIRNTYIHWVNQRPGKGLEWIGRIDPANGNTIYAEKFKSKVTLTADTSSNTAYMQLSQLKSDDTALYFCAMNYEGYEDYWGQGVMVTVSS
VL: B20 VL with R18S, V40L, F49H, N52D, T80P, N92K, I93S, Y95F, T96M, V103L
notes: From rat immunization/hybridoma; purified IgG in BLI; also called 020
B22: HC-28/LC-28 (Ab28) (antibody, IgG1, V domains shown)
VH: B21 VH with L24V
VL: B20 VL with R18S, V40L, F49H, T56P, I58F, T80P, T85A, I93S, Y95F, V103L
notes: From rat immunization/hybridoma; purified IgG in BLI; also called 028
B23: HC-23/LC-23 (Ab23) (antibody, IgG1, V domains shown)
VH: B20 VH with N38H, T66S, H77N, L81M, L98M, G115V
VL: B20 VL with V19L, V40L, T80P, Y95F, V103L
notes: From rat immunization/hybridoma; purified IgG in BLI; also called 023
B24: HC-19/LC-19 (Ab19) (antibody, IgG1, V domains shown)
VH: EVQLQESGPGLVKPSQSLSLTCSVTGYSISSNYRWNWIRKFPGNKVEWMGYINSAGSTNYNPSLKSRISMTRDTSKNQFFLQVNSVTTEDTATYYCARSLRGYITDYSGFFDYWGQGVMVTVSS
VL: DIRMTQSPASLSASLGETVNIECLASEDIFSDLAWYQQKPGKSPQLLIYNANSLQNGVPSRFSGSGSGTRYSLKINSLQSEDVATYFCQQYKNYPLTFGSGTKLEIK
notes: From rat immunization/hybridoma; purified IgG in BLI; also called 019

Each binder was assayed against T1, purified human CD117 ectodomain (R&D Systems #332-SR) (human, UniProt P10721 26-524) (assay: BLI, purified IgG on sensor, soluble ectodomain; apparent monovalent).
T1 construct: extracellular domain; Bought protein; also called c-kit; purified recombinant human CD117 ectodomain
T1 sequence (P10721 26-524): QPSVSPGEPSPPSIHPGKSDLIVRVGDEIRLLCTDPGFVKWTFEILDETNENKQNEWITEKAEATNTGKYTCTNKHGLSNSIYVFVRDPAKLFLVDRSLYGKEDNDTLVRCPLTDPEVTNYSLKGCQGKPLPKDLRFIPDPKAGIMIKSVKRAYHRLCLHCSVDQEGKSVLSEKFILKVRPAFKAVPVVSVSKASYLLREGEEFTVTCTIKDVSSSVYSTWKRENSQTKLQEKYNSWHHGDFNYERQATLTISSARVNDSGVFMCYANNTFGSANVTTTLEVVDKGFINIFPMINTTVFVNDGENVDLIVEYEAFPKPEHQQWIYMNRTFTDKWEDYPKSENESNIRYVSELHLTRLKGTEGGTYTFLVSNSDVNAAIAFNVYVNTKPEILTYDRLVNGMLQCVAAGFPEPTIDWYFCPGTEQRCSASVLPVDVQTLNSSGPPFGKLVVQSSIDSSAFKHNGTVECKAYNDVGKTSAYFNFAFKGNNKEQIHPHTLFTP
For B1, the Kd was 0.0964 nM, the koff was 0.000221 s⁻¹ and the kon was 2.29e+06 M⁻¹ s⁻¹.
In the case of B2, the Kd is reported as 0.729 nM, the koff is reported as 0.00027 s⁻¹ and the kon is reported as 370000 M⁻¹ s⁻¹.
Work on B3 yielded a Kd of 3.72 nM, a koff of 0.00117 s⁻¹ and a kon of 315000 M⁻¹ s⁻¹.
Binder B4 has a Kd of 1.41 nM, a koff of 0.000474 s⁻¹ and a kon of 336000 M⁻¹ s⁻¹.
B5 showed a Kd of 1.68 nM, a koff of 0.000585 s⁻¹ and a kon of 348000 M⁻¹ s⁻¹.
Work on B6 yielded a Kd of 1.51 nM, a koff of 0.000427 s⁻¹ and a kon of 283000 M⁻¹ s⁻¹.
In the case of B7, the Kd is reported as 0.99 nM, the koff is reported as 0.000272 s⁻¹ and the kon is reported as 275000 M⁻¹ s⁻¹.
B8 gave a Kd of 0.979 nM, a koff of 0.00026 s⁻¹ and a kon of 265000 M⁻¹ s⁻¹.
In the case of B9, the Kd is reported as 1.21 nM, the koff is reported as 0.000461 s⁻¹ and the kon is reported as 380000 M⁻¹ s⁻¹.
In the case of B10, the Kd is reported as 2.93 nM, the koff is reported as 0.000949 s⁻¹ and the kon is reported as 324000 M⁻¹ s⁻¹.
In the case of B11, the Kd is reported as 1.18 nM, the koff is reported as 0.000405 s⁻¹ and the kon is reported as 345000 M⁻¹ s⁻¹.
With B12 the Kd was 1.02 nM, the koff was 0.000352 s⁻¹ and the kon was 346000 M⁻¹ s⁻¹.
In the case of B13, the Kd is reported as 1.55 nM, the koff is reported as 0.000488 s⁻¹ and the kon is reported as 314000 M⁻¹ s⁻¹.
Binder B14 has a Kd of 2.03 nM, a koff of 0.000577 s⁻¹ and a kon of 284000 M⁻¹ s⁻¹.
In the case of B15, the Kd is reported as 0.908 nM, the koff is reported as 0.000264 s⁻¹ and the kon is reported as 290000 M⁻¹ s⁻¹.
Binder B16 has a Kd of 0.911 nM, a koff of 0.000268 s⁻¹ and a kon of 294000 M⁻¹ s⁻¹.
In the case of B17, the Kd is reported as 0.986 nM, the koff is reported as 0.00011 s⁻¹ and the kon is reported as 111000 M⁻¹ s⁻¹.
B18 was tested, and the Kd was 0.672 nM, the koff was 0.000306 s⁻¹ and the kon was 456000 M⁻¹ s⁻¹.
Work on B19 yielded a Kd of 0.715 nM, a koff of 0.000437 s⁻¹ and a kon of 612000 M⁻¹ s⁻¹.
Binder B20 has a Kd of 22.2 nM, a koff of 0.00491 s⁻¹ and a kon of 221000 M⁻¹ s⁻¹.
In the case of B21, the Kd is reported as 0.254 nM, the koff is reported as 0.000202 s⁻¹ and the kon is reported as 794000 M⁻¹ s⁻¹.
In the case of B22, the Kd is reported as 0.403 nM, the koff is reported as 0.000368 s⁻¹ and the kon is reported as 914000 M⁻¹ s⁻¹.
Binder B23 has a Kd of 1.49 nM, a koff of 0.000713 s⁻¹ and a kon of 478000 M⁻¹ s⁻¹.
B24 showed a Kd of 2.35 nM, a koff of 0.000481 s⁻¹ and a kon of 205000 M⁻¹ s⁻¹.

What follows are binders tested against T2, purified rhesus CD117 ectodomain (rhesus, UniProt F6V858 26-524) (assay: BLI, purified IgG on sensor, soluble rhesus ectodomain; apparent monovalent).
T2 construct: extracellular domain; also called rhesus antigen
With B1 the Kd was 0.0891 nM, the koff was 0.000155 s⁻¹ and the kon was 1.74e+06 M⁻¹ s⁻¹.
B17 showed a Kd of 19.6 nM, a koff of 0.000777 s⁻¹ and a kon of 39700 M⁻¹ s⁻¹.
In the case of B18, the Kd is reported as 0.562 nM, the koff is reported as 0.000173 s⁻¹ and the kon is reported as 307000 M⁻¹ s⁻¹.
Work on B19 yielded a Kd of 0.869 nM, a koff of 0.000357 s⁻¹ and a kon of 410000 M⁻¹ s⁻¹.
B20 showed a Kd of 53.8 nM, a koff of 0.0119 s⁻¹ and a kon of 221000 M⁻¹ s⁻¹.
With B21 the Kd was 1.39 nM, the koff was 0.000585 s⁻¹ and the kon was 421000 M⁻¹ s⁻¹.
B22 gave a Kd of 3.6 nM, a koff of 0.00187 s⁻¹ and a kon of 521000 M⁻¹ s⁻¹.
B23 was tested, and the Kd was 7.62 nM, the koff was 0.00214 s⁻¹ and the kon was 280000 M⁻¹ s⁻¹.
B24 was tested, and the Kd was 2.34 nM, the koff was 0.000415 s⁻¹ and the kon was 177000 M⁻¹ s⁻¹.
